{"source": "patent US20090311265A1", "binders": {"B1": {"name": "CR6329 (antibody, V domains shown)", "VH": "EVQLVQSGAEVKKPGSSVKVSCKASGGIFRSNSISWVRQAPGQGLEWMGGIFALFGTTDYAQKFQGRVTITADESSTTVYLELSSLTSEDTAVYYCARGSGYTTRNYFDYWGQGTLVTVSS", "VL": "EIVLTQSPGTLSLSPGERATLSCRASQSVSSNYLGWYQQKPGQAPRLLIYGASSRASGIPDRFSGGGSGTDFTLTISRLEPEDFAVYYCQQYGSSPLTFGGGTKVEIKR"}}, "key": {"[1]": {"molecular_target": "recombinant HA, subtype H9 (A/Hong Kong/1073/99 (H9N2)) (influenza A virus A/Hong Kong/1073/99 (H9N2))", "assay": "ELISA, coated HA, IgG 5 µg/ml"}, "[2]": {"molecular_target": "recombinant HA, subtype H7 (A/Netherlands/219/03 (H7N7)) (influenza A virus A/Netherlands/219/03 (H7N7))", "assay": "ELISA, coated HA, IgG 5 µg/ml"}}}
{"binder": "B1", "values": [{"measurement": "OD 492 nm", "setting": "[1]", "result": 2.16, "unit": "OD 492 nm"}, {"measurement": "OD 492 nm", "setting": "[2]", "result": 0.17, "unit": "OD 492 nm"}]}
